# According to paper PMC8883494, “Conformational trapping of an ABC transporter in polymer lipid nanoparticles” (Biochemical Journal, 2021):
# B1: Staphylococcus aureus ABC transporter Sav1866 in styrene-maleic acid lipid particles (natural protein)
# chain: MIKRYLQFVKPYKYRIFATIIVGIIKFGIPMLIPLLIKYAIDGVINNHALTTDEKVHHLTIAIGIALFIFVIVRPPIEFIRQYLAQWTSNKILYDIRKKLYNHLQALSARFYANNQVGQVISRVINDVEQTKDFILTGLMNIWLDCITIIIALSIMFFLDVKLTLAALFIFPFYILTVYVFFGRLRKLTRERSQALAEVQGFLHERVQGISVVKSFAIEDNEAKNFDKKNTNFLTRALKHTRWNAYSFAAINTVTDIGPIIVIGVGAYLAISGSITVGTLAAFVGYLELLFGPLRRLVASFTTLTQSFASMDRVFQLIDEDYDIKNGVGAQPIEIKQGRIDIDHVSFQYNDNEAPILKDINLSIEKGETVAFVGMSGGGKSTLINLIPRFYDVTSGQILIDGHNIKDFLTGSLRNQIGLVQQDNILFSDTVKENILLGRPTATDEEVVEAAKMANAHDFIMNLPQGYDTEVGERGVKLSGGQKQRLSIARIFLNNPPILILDEATSALDLESESIIQEALDVLSKDRTTLIVAHRLSTITHADKIVVIENGHIVETGTHRELIAKQGAYEHLYSIQNL
# notes: Sav1866, ABC transporter (half-transporter, homodimer) of Staphylococcus aureus; expressed from pet-19b:sav1866; M from chemical composition 64 863 Da; the undigested band at 65 kDa is called full-length Sav1866; Embedded in a SMALP nanoparticle with E. coli lipids; The DNA construct was a gift; its exact limits and linker are not described; also called Sav1866-SMALPs; Sav1866-10His; source: E. …
# Biological target: the molecule itself
# Test: SAXS; Sav1866-SMALPs from the 12 ml SEC fraction, undiluted sample, 20 mM Tris pH 8, 150 mM NaCl; DAMMIF models with P1 and P2 symmetry fitted with the crystal structure 2HYD
protein,measurement,value
B1,stoichiometry N,2
